Where a chain is given by its changes, count along the chain named.
T1: human CD30 (human, UniProt P28908 19-595)
T1 construct: The same molecule is used for CD30 on HL/ALCL/NHL cell lines; also called huCD30; TNFRSF8
T1 sequence: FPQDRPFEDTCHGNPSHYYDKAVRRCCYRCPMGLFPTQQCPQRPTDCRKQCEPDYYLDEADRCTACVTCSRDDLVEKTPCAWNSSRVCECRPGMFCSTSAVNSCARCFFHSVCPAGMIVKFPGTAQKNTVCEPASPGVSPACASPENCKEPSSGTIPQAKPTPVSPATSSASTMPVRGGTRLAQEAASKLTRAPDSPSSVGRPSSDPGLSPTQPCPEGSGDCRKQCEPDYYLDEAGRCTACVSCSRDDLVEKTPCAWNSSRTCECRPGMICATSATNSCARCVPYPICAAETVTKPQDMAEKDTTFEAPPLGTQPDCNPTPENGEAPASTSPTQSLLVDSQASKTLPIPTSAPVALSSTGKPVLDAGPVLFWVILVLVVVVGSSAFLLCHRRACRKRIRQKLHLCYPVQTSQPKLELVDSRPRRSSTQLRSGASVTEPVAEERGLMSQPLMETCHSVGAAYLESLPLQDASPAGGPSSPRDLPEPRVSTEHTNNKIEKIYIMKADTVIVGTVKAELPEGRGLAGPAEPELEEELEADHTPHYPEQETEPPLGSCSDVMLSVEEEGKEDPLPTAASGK

B1: bsG1-huCD3-FEALxCD30-MDX060-FEAR (bispecific antibody, human IgG1, kappa, lambda)
heavy 1: not shown
light 1: not shown
heavy 2: QVQLQQWGAGLLKPSETLSLTCAVYGGSFSAYYWSWIRQPPGKGLEWIGDINHGGGTNYNPSLKSRVTISVDTSKNQFSLKLNSVTAADTAVYYCASLTAYWGQGSLVTVSSASTKGPSVFPLAPSSKSTSGGTAALGCLVKDYFPEPVTVSWNSGALTSGVHTFPAVLQSSGLYSLSSVVTVPSSSLGTQTYICNVNHKPSNTKVDKRVEPKSCDKTHTCPPCPAPEFEGGPSVFLFPPKPKDTLMISRTPEVTCVVVAVSHEDPEVKFNWYVDGVEVHNAKTKPREEQYNSTYRVVSVLTVLHQDWLNGKEYKCKVSNKALPAPIEKTISKAKGQPREPQVYTLPPSREEMTKNQVSLTCLVKGFYPSDIAVEWESNGQPENNYKTTPPVLDSDGSFFLYSRLTVDKSRWQQGNVFSCSVMHEALHNHYTQKSLSLSPG
light 2: DIQMTQSPTSLSASVGDRVTITCRASQGISSWLTWYQQKPEKAPKSLIYAASSLQSGVPSRFSGSGSGTDFTLTISSLQPEDFATYYCQQYDSYPITFGQGTRLEIKRTVAAPSVFIFPPSDEQLKSGTASVVCLLNNFYPREAKVQWKVDNALQSGNSQESVTEQDSKDSTYSLSSTLTLSKADYEKHKVYACEVTHQGLSSPVTKSFNRGEC
notes: also called bsG1-huCD3xCD30-MDX060
B2: bsG1-huCD3-FEALxCD30-MDX060-FERR (bispecific antibody, human IgG1, kappa, lambda)
heavy 1: not shown
light 1: not shown
heavy 2: B1 heavy 2 with G231R, A260D
light 2: B1 light 2
notes: Bispecific IgG1 made by controlled Fab-arm exchange; also called bsIgG1-huCD3-FEALxCD30-MDX060-FERR; bsG1-huCD3×CD30-MDX060

Experiments:
human CD30 [1] = target: T1, human CD30; experiment: flow cytometry, DEL cells, experiment N = 1
human CD30 [2] = target: T1, human CD30; experiment: flow cytometry, DEL cells, experiment N = 2
human CD30 [3] = target: T1, human CD30; experiment: flow cytometry, Expi293F cells transfected with human CD30
Procedure: Cells (3×10⁴ cells/well) were incubated in polystyrene 96-well round-bottom plates (Greiner bio-one, cat. no. 650180) with serial dilutions of antibodies (ranging from 0.005 to 10 μg/mL in 3-fold dilution steps) in 100 μL staining buffer at 4° C. for 30 min. Experiments were performed in technical duplicate. After washing twice in staining buffer, cells were incubated in 50 μL secondary antibody at 4° C. for 30 min. As a secondary antibody, R-PE-conjugated goat-anti-human IgG (Jackson ImmunoResearch, UK; cat. no. 109⁻¹¹⁶-098) diluted 1:400 in staining buffer was used. Cells were washed twice in staining buffer, resuspended in 30 μL staining buffer containing 0.4% EDTA and analyzed on an iQue Screener (Intellicyt Corporation, USA). Binding curves were analyzed using non-linear regression (sigmoidal dose-response with variable slope) using GraphPad Prism V9.0.0 software (GraphPad Software, San Diego, CA, USA).

human CD30 [4] = target: T1, human CD30; experiment: cell-based or functional assay
human CD30 [5] = target: T1, human CD30; experiment: flow cytometry, KI-JK cells, experiment N = 2
human CD30 [6] = target: T1, human CD30; experiment: flow cytometry, SUP-M2 cells (ALCL), range of 3 tests
Procedure: (§1) Cells (3×10⁴ cells/well) were incubated in polystyrene 96-well round-bottom plates (Greiner bio-one, cat. no. 650180) with serial dilutions of antibodies (range 0.0046 to 10 μg/mL in 3-fold dilution steps) in 50 μL staining buffer at 4° C. for 30 min. After washing twice in staining buffer, cells were incubated with 50 μL secondary antibody at 4° C. for 30 min. […] Next, cells were washed twice in staining buffer, resuspended in 100 μL staining buffer supplemented with TO-PRO-3 iodide (Thermo Fisher Scientific; cat. no. T3605; 1:8000 dilution) and analyzed on a FACSCelesta flow cytometer (BD Biosciences, USA). Live cells were gated based on FSC/SSC and absence of TOPRO-3 staining. Binding curves were analyzed by non-linear regression of log-transformed data (sigmoidal dose-response with variable slope, four parameters) using GraphPad Prism V7.02 software (GraphPad Software, San Diego, CA, USA).

complement protein C1q = target: T2, complement protein C1q (human, UniProt P02745 23-245; P02746 28-253; P02747 29-245); experiment: flow cytometry with FITC anti-C1q; antibody-opsonized activated human CD8+ T cells, 20% normal human serum as the source of C1q
T2 construct: 20% human serum was used as the source of C1q
Procedure: Activated CD8⁺ T cells were seeded in a round-bottom 96-well plate (30,000 cells/well), pelleted, and resuspended in 30 μL assay medium (RPMI-1640 with 25 mM HEPES and L-glutamine, supplemented with 0.1% [w/v] bovine serum albumin fraction V (BSA; Roche, cat. no. 10735086001) and penicillin/streptomycin).
Human serum (20 μL/well; Sanquin, lot 20L15-02), as a source of C1q, was added to a final concentration of 20%. Cells were incubated on ice for 45 min, followed by two washes with cold GMB FACS buffer and incubation with 50 μL fluorescein isothiocyanate (FITC)-conjugated rabbit anti-human C1q (final concentration of 20 μg/mL (DAKO, cat no. F0254); diluted 1:75 in GMB FACS buffer) in the presence or absence of allophycocyanin-conjugated mouse-anti-CD8 (BD Biosciences, cat. no. 555369; diluted 1:50 in GMB FACS buffer) in the dark at 4° C. for 30 min. […] C1q binding to viable cells (as identified by DAPI exclusion) was analyzed by flow cytometry on an iQue3 Screener (Intellicyt Corporation). Data were analyzed using iQue software (Intellicyt Corporation, ForeCyt® Enterprise Client Edition 6.2 [R3], Version 6.2.652).

human CD30 [7] = target: T1, human CD30; experiment: flow cytometry, KARPAS-299 cells (ALCL), range of 2 tests
Procedure: as §1

human CD30 [8] = target: T1, human CD30; experiment: flow cytometry, SR-786 cells (ALCL), average of 3 tests
Procedure: as §1

T2 sequence (P02745 23-245 limits assumed, chain 1 of 3): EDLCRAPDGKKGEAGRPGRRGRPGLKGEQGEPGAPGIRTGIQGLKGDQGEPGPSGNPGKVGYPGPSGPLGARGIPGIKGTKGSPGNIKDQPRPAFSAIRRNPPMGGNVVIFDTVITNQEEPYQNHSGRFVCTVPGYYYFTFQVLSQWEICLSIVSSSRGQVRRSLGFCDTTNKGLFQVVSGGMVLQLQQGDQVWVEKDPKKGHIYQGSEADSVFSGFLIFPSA
T2 sequence (P02746 28-253 limits assumed, chain 2 of 3): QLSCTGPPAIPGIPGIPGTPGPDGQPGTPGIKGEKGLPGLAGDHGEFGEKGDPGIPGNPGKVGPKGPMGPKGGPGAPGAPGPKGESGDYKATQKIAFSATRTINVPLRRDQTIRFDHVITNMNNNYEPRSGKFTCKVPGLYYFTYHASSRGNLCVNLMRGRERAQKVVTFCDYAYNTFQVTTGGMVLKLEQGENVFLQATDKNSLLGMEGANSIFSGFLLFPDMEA
T2 sequence (P02747 29-245 limits assumed, chain 3 of 3): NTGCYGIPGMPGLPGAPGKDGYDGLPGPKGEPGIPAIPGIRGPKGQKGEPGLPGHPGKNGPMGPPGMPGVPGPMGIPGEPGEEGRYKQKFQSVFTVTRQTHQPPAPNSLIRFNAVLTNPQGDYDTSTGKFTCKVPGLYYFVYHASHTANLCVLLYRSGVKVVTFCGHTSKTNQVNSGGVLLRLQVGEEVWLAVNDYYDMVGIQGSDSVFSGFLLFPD

Binder | EC50 (human CD30 [1]) [µg/mL] | EC50 (human CD30 [2]) [µg/mL] | EC50 (read off the curve) (human CD30 [3]) [µg/mL] | T-cell mediated cytotoxicity of Karpas-299 cells, IC50 average (human CD30 [4]) [µg/mL] | T-cell mediated cytotoxicity of Karpas-299 cells, maximum lysis average (human CD30 [4]) [%] | EC50 (human CD30 [5]) [µg/mL] | EC50 (human CD30 [6]) [µg/mL] | binding result (complement protein C1q) | EC50 (human CD30 [7]) [µg/mL] | EC50 (human CD30 [8]) [µg/mL]
B1 | 0.302 | 0.0568 | ~0.09 | 0.033 | 53.7 | 0.0735 | – | – | – | –
B2 | – | – | – | 0.029 | 52.3 | – | 0.134 to 0.223 | no binding (tested: about 30 µg/mL) | 0.134 to 0.269 | 0.328

Reference: patent publication US20260234255A1 (Genmab, published 2026)
